# Measured values from the DeepSol protein solubility set.
# Assay: soluble on expression in E. coli; label from the status in PepcDB or PDB records
row,Sequence,soluble on expression in E. coli
1,GLTYDLNGNISTYRNEILELPETVAANGKFGGNGVKSVVGHTYGAQVGYIADGIFKSQDEVDNHATQEGAAVGRIRYRDIDHNGVIDERDQNWIYDPTPSFSYGLNIYLEYKNFDLTMFWQGVQGVDIISDVKKKSDFWSASNVGFLNKGTRLLNAWSPTNPNSDIPALTRSDTNNEQRVSTYFVENGSFLKLRNIQLGYTVPAVISKKMRMDRLRFYCSAQNLLTIKSKNFTGEDPENPNFSYPIPVNITFGLNIGF,not soluble
2,GMAGKVEARKAALREKLIDLAEAQIEAEGLASLRARELARQADCAVGAIYTHFQDLNALTLEVNGRTFARLGAAVGAVVADGQDDHPNERLIAMSHAYLAFAREHPKLWRALFDVEMRSDGPVPQWYGHAMAQLFSYITTPLAKIFPESDDAELDLMTRTLFSSVHGIVLLGLENRISGVPGEQLKTMIRLLLEQVGR,soluble
3,GMAHPPQIRIPATYLRGGTSKGVFFRLEDLPESCRVPGEARDRLFMRVIGSPDPYAAHIDGMGGATSSTSKCVILSKSSQPGHDVDYLYGQVSIDKPFVDWSGNCGNLSTGAGAFALHAGLVDPARIPEDGICEVRIWQANIGKTIIAHVPVSGGQVQETGDFELDGVTFPAAEIVLEFLDPSDDGEDGGAIFPTGNLVDDLEVPGVGTFKATMINAGIPTVFVNAEEIGYRGTELREEINGDPQQLARFERIRVAGALRMGLIKTPEEAATRQHTPKIAFVAPPRDYRTASGKLVAAGDIDLLVRALSMGKLHHAMMGTAAVAIGTAAAIPGTLVNLAAGGGERSAVRFGHPSGTLRVGAEASQANGEWTVTKAIMSRSARILMEGWVRVPGDAF,soluble
4,GMARKRLIIEMGMGIDQHGQEPTIAASRAVRNAIAHNALPGVWEVAGLSHPNEMIIEVQVAVPYPEQVREEEVLAVLPFGRKTLTVESGGMIVQGRAIPELNDKNDEMLIAIAAVTVLIENE,soluble
5,GMASEFDLIQRYFRRAHPSAVLGVGDDAALIQPSPGMELAVSADMLVANTHFYPNIDPWLIGWKSLAVNISDMAAMGAQPRWATLTIALPEADEDWISKFAAGFFACAAQFDIALIGGDTTRGPLTISVQIMGETPPGASLLRSTARADDDIWVSGPLGDAALALAAIQGRYPLSDTELAACGKALHQPQPRVVLGQALRGLAHSALDISDGLLADLGHILEHSQVGAEVWLKAIPKSEVVSAHSQEVAIQKMILSGGDDYELCFTASTQHRQQIADIGRQLSLDMAVIGRITDTQQLVIHGLDDAPLTLKEHGFDHFA,soluble
6,GMCINRQILNAVTASNRKKNTPLNTYVSFDEPVNPEDDSQVKLVDVLKSDKEQNPERLFIDQENAESLEDKLYSVLSGFEKNVLELYMSGKDYIAIAQTLDKPPKSIDNAIQRIRNKVDKITNL,not soluble
7,GMDDETLRLQFGHLIRILPTLLEFEKKGYEPSLAEIVKASGVSEKTFFMGLKDRLIRAGLVKEETLSYRVKTLKLTEKGRRLAECLEKCRDVLGS,soluble
8,GMDISGRDVETRLTLAREFMSGVDELPTVPDIVLRIAGKLNDPDVAIDEVADLLLQDQVLTARVVHLANSPLYSAARPISSIRDAVIYLGLDLLREAIFTCAIVDLFKTGKGPLNRSTLWAHSLGVARIAKLIAERTGFLNPVNVYVAGLLHDVGEVFINFFRGKEFSQVVTLVDEEKITFGQAEERLFGTSHCEVGFALAKRWSLNEFICDTILYHHDIEAVPYKQAAIVAMVAFADEYCTLRRLGFEGHKPVDSVRTLLENHPSWGVIRRSLGGSDFDEKLIVAELDSSIVEIRAAVDELFLL,soluble
9,GMDISLLKQVVQSTNKIALSTAVNNEADVKIVNFVWYEAQPDTLYFSSVKTSPALKVYDQNPDIAFITIPNDGTAGNPYLRAQHVKLQRSTKTMTDLLPQYLETVPNYQQVWDAIGSTLVVFELKLTDLFVDAGVGGEKQTLTFN,soluble
10,GMDRTLTHQPQEYAVSVSVGEVKLKGNLVIPNGATGIVLFAHGSGSSRYSPRNRYVAEVLQQAGLATLLIDLLTQEEEEIDLRTRHLRFDIGLLASRLVGATDWLTHNPDTQHLKVGYFGASTGGGAALVAAAERPETVQAVVSRGGRPDLAPSALPHVKAPTLLIVGGYDLPVIAMNEDALEQLQTSKRLVIIPRASHLFEEPGALTAVAQLASEWFMHYLR,soluble
11,GMDVEIVEELSKMLAGRKAVTEEEIRRKAIRCALKIMGARLVGIDAELIEDVTCSLIDCPITLKSLHFSEKVKIGDVLFYHPHVIKPEKEDFEQAYFEYKQSKKFLDAFDIMREVTDRFFEGYEAEGRYMRKYTKDGRNYYAFFSTIDDTFEDVDIHLRMVDEVDGDYVVIVPTENELNPFLKFFKQYSEDAKRAGLKIWVVNPDEKTIDPFIGYPKDFRLLKGFKNPKAAALVSAYWRVTVTDLD,soluble
12,GMGMEHKTYEADLFVWCQQQADGLRALSRSRRDLPDDLDLEHIAEEIEDMGRSELREATSLVRQICVRVIMAMSAPEAPDRARWRSEVVSWHNLLLDTITPGMIDRIDIGVIWRRAVSEAKAALIEINVAPQAGLSFQAPLPADHFLDEDFDYDATVARLGPTA,soluble
13,GMGQQESTLGGAAGEPRSRGHAAGTSGGPGDHLHATPGMFVQHSTAIFSDRYKGQRVLGKGSFGEVILCKDKITGQECAVKVISKRQVKQKTDKESLLREVQLLKQLDHPNIMKLYEFFEDKGYFYLVGEVYTGGELFDEIISRKRFSEVDAARIIRQVLSGITYMHKNKIVHRDLKPENLLLESKSKDANIRIIDFGLSTHFEASKKMKDKIGTAYYIAPEVLHGTYDEKCDVWSTGVILYILLSGCPPFNGANEYDILKKVEKGKYTFELPQWKKVSESAKDLIRKMLTYVPSMRISARDALDHEWIQTYTKEQISVDVPSLDNAILNIRQFQGTQKLAQAALLYMGSKLTSQDETKELTAIFHKMDKNGDGQLDRAELIEGYKELMRMKGQDASMLDASAVEHEVDQVLDAVDFDKNGYIEYSEFVTVAMDRKTLLSRERLERAFRMFDSDNSGKISSTELATIFGVSDVDSETWKSVLSEVDKNNDGEVDFDEFQQMLLKLCGN,soluble
14,GMIEKVYEFKRDAKTKVVEKLVNTEHVQINHIVLPRGEQMPKHYSNSYVHLIIIKGEMTLTLEDQEPHNYKEGNIVYVPFNVKMLIQNINSDILEFFVVKAPHPKKLNAPEDPIKCE,soluble
15,GMKPLKEVVGAYLALSDAQRQLVAGEYDEAAANCRRAMEISHTMPPEEAFDHAGFDAFCHAGLAEALAGLRSFDEALHSADKALHYFNRRGELNQDEGKLWISAVYSRALALDGLGRGAEAMPEFKKVVEMIEERKGETPGKERMMEVAIDRIAQLGAS,soluble
16,GMLKILATQFNGKLQTLTKQEDELFDVVRLLAQALVGQGKVYLDAYGEFEGLYPMLSDGPDQMKRVTKIKDHKTLHAVDRVLIFTPDTERSDLLASLARYDAWHTPYSIITLGDVTETLERSIAPLALKFDKGLLPAEDGSRHGLPSLALGAFLLTHILTQLQEMTEEWE,soluble
17,GMLPDDVNQADVLADVTAAFYRYEKALTGNDVAVLDELFWHDEKTVRYGAGENLYGIEEIRAFRLARPSAGLDRALRNTVITTYGHDMAVASTEFTRTGSTKIGRQMQTWVKMPEGWRIVAAHVSLMSE,soluble
18,GMLSNLESSIQSPKSGEYQCLAALNLYDSPECTSLATQAAVGRHLQVTSNQQGAAVEVCLCEDDYPGWLSLGDLGLLKPATVLYQAKSFSESEIKKLLPGAIAFTQKAMQQSNYYLWGGTVGPNYDCSGLMQAAFVSVGIWLPRDAYQQEAFTQAITIDELAPGDLVFFGTPVKATHVGLYLGDGCYIHSSGKAQGRDGIGIDILSEQGDVVSRSYYQQLRGAGRVVKSYKPQRH,soluble
19,GMSAPVTLINPFKVPADKLEAAIEYWEAHRDFMAQQPGYLSTQLHQSIDEGATYQLINVAIWQSEADFYQAAQKMRQALGHVQVEGLCGNPALYRVIRT,soluble
20,GMSARDVFHEVVKTALKKDGWQITDDPLTISVGGVNLSIDLAAQKLIAAERQGQKIAVEVKSFLKQSSAISEFHTALGQFINYRGALRKVEPDRVLYLAVPLTTYKTFFQLDFPKEIIIENQVKMLVYDVEQEVIFQWIN,soluble
21,GMSEIDANYRALAQQVADKVAGRVIALDRLPESLLTAYRSLCDELLADRDGRFTRAWDQLPDSASSLFERCVFHGFYLANAWIQLSIVARDISELQDTDEAIAEQEYSGLYVRVAEAALKESVKKLKKARTDRSMYNSMREVMGI,soluble
22,GMSISSKAKEILTQFTREVWSEGNIEASDKYIAPKYTVLHDPGDPWEGRELDVAGYKERVKTLRAAFPDQCFDIQGLFADGDAVVMTWLWTATHKEDIPGFPSTGKQIKMSGATVYYFDGNRLTGHWQITDRLGVYQQLRQAAAGA,soluble
23,GMSLPHLSSGEVASVLPLGKQLTQTPSAALFKEHRLEVMRMVLPAGKQVGSHSVAGPSTIQCLEGEVEIGVDGAQRRLHQGDLLYLGAGAAHDVNAITNTSLLVTVVLVDRGGS,soluble
24,GMSMPNHPNLTTADAKKILNKFNCLDIAPILKPSEKESVRRALILITKLSDYQILGICADTADEGLLAMKTYSHALGYEVPIDLPVVEGPVYIKLNGKNGLCYLDSYAGHHRGVLVSCQSYYEGGINEMYGHLPLDLFV,soluble
25,GMSSMQHIVELTSDLIRFPSMHSRPEQISRCAGFIMDWCAQNGIHAERMDHDGIPSVMVLPEKGRAGLLLMAHIDVVDAEDDLFVPRVENDRLYGRGANDDKYAVALGLVMFRDRLNALKAAGRSQKDMALGLLITGDEEIGGMNGAAKALPLIRADYVVALDGGNPQQVITKEKGIIDIKLTCTGKAAHGARPWMGVNAVDLLMEDYTRLKTLFAEENEDHWHRTVNLGRIRAGESTNKVPDVAEGWFNIRVTEHDDPGALIDKIRKTVSGTVSIVRTVPVFLAADSPYTERLLALSGATAGKAHGASDARYLGENGLTGVVWGAEGFNTLHSRDECLHIPSLQSIYDPLMQLAREMEEHAAV,soluble
26,GMSSTSSKVVLHPTMLNCMRGLHKKAVLPEPVLDRGIELARAFVGGRRARGQRVERQPDVAAACLMIAAEEAQQPLPLAEVRCLDSSLGDVELRRADIVRELHLEDSERRLRDTFADNLLVKYILKLGLQVSLYLPHCKRLLTALGRVEALAGLTVADRVTTALLLARTAQTLSWEQGTHISKGKECDLGMEAIYANFSSKAHLEVTKVNKIMHLAVDVLPLIQAAFQDCGEPTAGKRKVDKNSEPEASGGTKRVKREET,soluble
27,GMTILSDVKALGQQIWLDNLSRSLVQSGELAQMLKQGVCGVTSNPAIFQKAFAGDALYADEVAALKRQNLSPKQRYETMAVADVRAACDVCLAEHESTGGKTGFVSLEVSPELAKDAQGTVEEARRLHAAIARKNAMIKVPATDAGIDALETLVSDGISVNLTLLFSRAQTLKAYAAYARGIAKRLAAGQSVAHIQVVASFFISRVDSALDATLPDRLKGKTAIALAKAAYQDWEQYFTAPEFAALEAQGANRVQLLWASTGVKNPAYPDTLYVDSLIGVHTVNTVPDATLKAFIDHGTAKATLTESADEARARLAEIAALGIDVETLAARLQEDGLKQFEEAFEKLLAPLV,soluble
28,GNQRKVSVVGAQSTMDVKDIKMPAASLSSAISGRIAGVVAVQRSGEPGHDESDIWIRGLSSLLGQSSSPLVLVDGVERSFNNIDPEDIESFTVLKDASATAVYGVRGANGVVIVKTKPGKVG,soluble
